This assay addresses Full-length human SIRT1 (His-tagged) (human) (UniProt Q96EB6). The experiment in a line: cell-based or functional assay.

Chain of Full-length human SIRT1 (His-tagged) (human) (Q96EB6 2-747): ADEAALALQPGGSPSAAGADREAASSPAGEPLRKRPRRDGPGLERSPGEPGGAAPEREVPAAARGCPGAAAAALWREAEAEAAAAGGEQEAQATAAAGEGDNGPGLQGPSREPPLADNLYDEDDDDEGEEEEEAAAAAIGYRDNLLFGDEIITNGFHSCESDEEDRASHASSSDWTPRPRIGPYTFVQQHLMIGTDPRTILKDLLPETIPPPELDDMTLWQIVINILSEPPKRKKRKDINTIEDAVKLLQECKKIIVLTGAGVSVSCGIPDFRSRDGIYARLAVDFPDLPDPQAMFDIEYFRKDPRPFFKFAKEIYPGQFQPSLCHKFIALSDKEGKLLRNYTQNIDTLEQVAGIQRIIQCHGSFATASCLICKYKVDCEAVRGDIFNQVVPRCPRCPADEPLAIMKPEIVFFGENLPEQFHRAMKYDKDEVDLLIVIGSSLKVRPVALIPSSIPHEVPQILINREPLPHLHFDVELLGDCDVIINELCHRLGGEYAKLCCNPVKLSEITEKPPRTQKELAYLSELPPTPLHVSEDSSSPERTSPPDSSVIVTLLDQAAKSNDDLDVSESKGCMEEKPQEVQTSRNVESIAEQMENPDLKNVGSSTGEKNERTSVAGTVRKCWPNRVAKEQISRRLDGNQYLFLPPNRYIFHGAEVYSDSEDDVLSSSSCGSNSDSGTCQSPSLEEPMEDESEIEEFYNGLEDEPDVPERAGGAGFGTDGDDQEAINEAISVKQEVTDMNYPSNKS

Substance synthetic Tat (aa 1-72) gave a Tat concentration required for half maximal inhibition (IC50) of SIRT1; fluorescent deacetylation assay with acetylated p53 peptide (aa 379-382) of 3.5 µM.

The record behind these values is patent US20140030295A1.
